The source of these data is the Human Domainome abundance scans (Beltran et al. 2025).

The chains are these.
B1: CD2-associated protein, residues 109 to 169; numbered along this chain, Q9Y5K6 (parent)
chain: KKRQCKVLFEYIPQNEDELELKVGDIIDINEEVEEGWWSGTLNNKLGLFPSNFVKELEVTD

± gives the uncertainty stated by the source.

The data set covers variants of B1. The data set can be described thus: abundance fitness (aPCA) (normalised: wild type 0, dead -1); higher = more abundant; growth selection in yeast, the domain comes from the species named. The settings on record: Homo sapiens.
In the case of KKRQCKVLFEYIPQNEDELELKVGDIIDINEEVEEGWWSGTLPNKLGLFPSNFVKELEVTD, the abundance fitness is -0.791 ± 0.36.
In the case of KKRQCKVLFEYIPQNEDELELKVGDIIDINEEVEEGWWSGTLHNKLGLFPSNFVKELEVTD, the abundance fitness was -0.014 ± 0.21.
To KKRQCKVLFEYIPQNEDELELKVGDIIDINEEVEEGWWSGTLSNKLGLFPSNFVKELEVTD belongs -0.337 ± 0.11; to KKRQCKVLFEYIPQNEDELELKVGDIIDINEEVEEGWWSGTLGNKLGLFPSNFVKELEVTD, -0.09 ± 0.13.
To KKRQCKVLFEYIPQNEDELELKVGDIIDINEEVEEGWWSGTLVNKLGLFPSNFVKELEVTD belongs -0.679 ± 0.21; to KKRQCKVLFEYIPQNEDELELKVGDIIDINEEVEEGWWSGTLLNKLGLFPSNFVKELEVTD, -0.489 ± 0.1; to KKRQCKVLFEYIPQNEDELELKVGDIIDINEEVEEGWWSGTLRNKLGLFPSNFVKELEVTD, 0.061 ± 0.073.
To KKRQCKVLFEYIPQNEDELELKVGDIIDINEEVEEGWWSGTLMNKLGLFPSNFVKELEVTD belongs -0.144 ± 0.17; to KKRQCKVLFEYIPQNEDELELKVGDIIDINEEVEEGWWSGTLCNKLGLFPSNFVKELEVTD, -0.19 ± 0.37; to KKRQCKVLFEYIPQNEDELELKVGDIIDINEEVEEGWWSGTLYNKLGLFPSNFVKELEVTD, -0.553 ± 0.34.
Take KKRQCKVLFEYIPQNEDELELKVGDIIDINEEVEEGWWSGTLKNKLGLFPSNFVKELEVTD: the abundance fitness is -0.544 ± 0.33.
Consider KKRQCKVLFEYIPQNEDELELKVGDIIDINEEVEEGWWSGTLTNKLGLFPSNFVKELEVTD, for which the abundance fitness was -0.835 ± 0.21.
To KKRQCKVLFEYIPQNEDELELKVGDIIDINEEVEEGWWSGTLENKLGLFPSNFVKELEVTD belongs -0.333 ± 0.27; to KKRQCKVLFEYIPQNEDELELKVGDIIDINEEVEEGWWSGTLFNKLGLFPSNFVKELEVTD, -0.137 ± 0.27.
To KKRQCKVLFEYIPQNEDELELKVGDIIDINEEVEEGWWSGTLQNKLGLFPSNFVKELEVTD belongs -0.275 ± 0.15.
Regarding KKRQCKVLFEYIPQNEDELELKVGDIIDINEEVEEGWWSGTLNNKLGDFPSNFVKELEVTD, the abundance fitness is -0.821 ± 0.21.
Turning to KKRQCKVLFEYIPQNEDELELKVGDIIDINEEVEEGWWSGTLNNKLGFFPSNFVKELEVTD, the abundance fitness is -0.19 ± 0.1.
On to KKRQCKVLFEYIPQNEDELELKVGDIIDINEEVEEGWWSGTLNNKLGSFPSNFVKELEVTD, for which the abundance fitness was -0.438 ± 0.091.
To KKRQCKVLFEYIPQNEDELELKVGDIIDINEEVEEGWWSGTLNNKLGEFPSNFVKELEVTD belongs -0.539 ± 0.14; to KKRQCKVLFEYIPQNEDELELKVGDIIDINEEVEEGWWSGTLNNKLGHFPSNFVKELEVTD, -0.291 ± 0.11.
To KKRQCKVLFEYIPQNEDELELKVGDIIDINEEVEEGWWSGTLNNKLGIFPSNFVKELEVTD belongs -0.022 ± 0.13.
To KKRQCKVLFEYIPQNEDELELKVGDIIDINEEVEEGWWSGTLNNKLGPFPSNFVKELEVTD belongs -0.403 ± 0.12; to KKRQCKVLFEYIPQNEDELELKVGDIIDINEEVEEGWWSGTLNNKLGCFPSNFVKELEVTD, -0.094 ± 0.13; to KKRQCKVLFEYIPQNEDELELKVGDIIDINEEVEEGWWSGTLNNKLGGFPSNFVKELEVTD, -0.618 ± 0.11.
Turning to KKRQCKVLFEYIPQNEDELELKVGDIIDINEEVEEGWWSGTLNNKLGNFPSNFVKELEVTD, the abundance fitness is -0.187 ± 0.14.
To KKRQCKVLFEYIPQNEDELELKVGDIIDINEEVEEGWWSGTLNNKLGMFPSNFVKELEVTD belongs -0.107 ± 0.08; to KKRQCKVLFEYIPQNEDELELKVGDIIDINEEVEEGWWSGTLNNKLGTFPSNFVKELEVTD, -0.021 ± 0.084.
To KKRQCKVLFEYIPQNEDELELKVGDIIDINEEVEEGWWSGTLNNKLGRFPSNFVKELEVTD belongs 0.273 ± 0.074; to KKRQCKVLFEYIPQNEDELELKVGDIIDINEEVEEGWWSGTLNNKLGQFPSNFVKELEVTD, -0.298 ± 0.092; to KKRQCKVLFEYIPQNEDELELKVGDIIDINEEVEEGWWSGTLNNKLGKFPSNFVKELEVTD, 0.197 ± 0.073.
To KKRQCKVLFEYIPQNEDELELKVGDIIDINEEVEEGWWSGTYNNKLGLFPSNFVKELEVTD belongs -0.01 ± 0.2.
As for KKRQCKVLFEYIPQNEDELELKVGDIIDINEEVEEGWWSGTWNNKLGLFPSNFVKELEVTD, the abundance fitness is -0.945 ± 0.45.
KKRQCKVLFEYIPQNEDELELKVGDIIDINEEVEEGWWSGTLNNKLQLFPSNFVKELEVTD: the abundance fitness was -0.696 ± 0.17.
To KKRQCKVLFEYIPQNEDELELKVGDIIDINEEVEEGWWSGTLNNKLYLFPSNFVKELEVTD belongs -0.434 ± 0.19; to KKRQCKVLFEYIPQNEDELELKVGDIIDINEEVEEGWWSGTLNNKLPLFPSNFVKELEVTD, -0.82 ± 0.17.
To KKRQCKVLFEYIPQNEDELELKVGDIIDINEEVEEGWWSGTLNNKLSLFPSNFVKELEVTD belongs -1.05 ± 0.26.
To KKRQCKVLFEYIPQNEDELELKVGDIIDINEEVEEGWWSGTLNNKLWLFPSNFVKELEVTD belongs -0.759 ± 0.18; to KKRQCKVLFEYIPQNEDELELKVGDIIDINEEVEEGWWSGTLNNKLFLFPSNFVKELEVTD, -0.784 ± 0.28; to KKRQCKVLFEYIPQNEDELELKVGDIIDINEEVEEGWWSGTLNNKLILFPSNFVKELEVTD, -0.584 ± 0.35.
As for KKRQCKVLFEYIPQNEDELELKVGDIIDINEEVEEGWWSGTLNNKLDLFPSNFVKELEVTD, the abundance fitness was -0.611 ± 0.19.
To KKRQCKVLFEYIPQNEDELELKVGDIIDINEEVEEGWWSGTLNNKLNLFPSNFVKELEVTD belongs -0.723 ± 0.41; to KKRQCKVLFEYIPQNEDELELKVGDIIDINEEVEEGWWSGTLNNKLKLFPSNFVKELEVTD, -0.773 ± 0.23.
To KKRQCKVLFEYIPQNEDELELKVGDIIDINEEVEEGWWSGTLNNKLTLFPSNFVKELEVTD belongs -0.644 ± 0.16.
